Patent publication EP1644414B1

What was measured:
[1] = target: UV-inactivated SARS-CoV preparation (Frankfurt 1 strain) (SARS-CoV strain Frankfurt 1); experiment: phage ELISA, plate 2 (no phage 0.211)
[2] = target: UV-inactivated SARS-CoV preparation (Frankfurt 1 strain) (SARS-CoV strain Frankfurt 1); experiment: phage ELISA, plate 3 (no phage 0.054)
[3] = target: UV-inactivated SARS-CoV preparation (Frankfurt 1 strain) (SARS-CoV strain Frankfurt 1); experiment: phage ELISA, plate 4 (no phage 0.051)

B1: SC03-024 (scFv)
scFv: AMAQVQLVESGSELKIPGASVKVSCKATGYTFTRYSLNWVRQAPGQGLEWVGWINTQTGNSNYGQAFSGRFVFSLDTSVSTAYLQISSLQAEDTATYYCARKSAGSNAFDIWGQGTMVTVSSGTGGSGGTGSGTGGSTQSVVTQPPSVSAAPGQKATISCSGSSSNIGNNYVSWYQQLPGTAPKLLIYDNNKRPSGIPNRFSGSKSGTSATLGITGLQTGDEADYYCGTWDSSLSAYVFGTGTKVTVLGAA
B1 gave an OD492nm [1] of 0.235 OD492nm.

B2: SC03-020 (scFv)
scFv: AMAEVQLVQSGSEVKKPGESLKISCKGSGYGFITYWIGWVRQMPGKGLEWMGIIYPGDSETRYSPSFQGQVTISADKSINTAYLQWSSLKASDTAIYYCAGGSGISTPMDVWGQGTTVTVSSGTGGSGGTGSGTGGSTDIQMTQSPDSLAVSLGERATINCKSSQKILHSSNNKNYLAWYQQKPGQPPKLLIYWASTRESGVPDRFSGSGSGTDFTLTISSLQAEDVAVYYCQQYYSTPPVFGGGTKVEIKRAA
B2 was tested, and the OD492nm [1] was 0.671 OD492nm.

B3: SC03-021 (scFv)
scFv: AMAQVQLVQSGTEVKKPGESLKISCKGSGYGFITYWIGWVRQMPGKGLEWMGIIYPGDSETRYSPSFQGQVTISADKSINTAYLQWSSLKASDTAIYYCAGGSGISTPMDVWGQGTTVTVSSGTGGSGGTGSGTGGSTDVVMTQSPDSLAVSLGERATINCKSSQSVLHSSNNKNYLAWYQQKPGQPPKLLIYWASTRQSGVPDRFSGSGSGTDFTLTISSLQAEDVAVYYCQQYYSTPPTFGQGTKVEIKRAA
B3 gave an OD492nm [1] of 0.215 OD492nm.

B4: SC03-051 (scFv)
scFv: AMAQVQLVQSGTEVKKPGESLKISCKGSGYGFITYWIGWVRQMPGKGLEWMGIIYPGDSETRYSPSFQGQVTISADKSINTAYLQWSSLKASDTAIYYCAGGSGISTPMDVWGQGTTVTVSSGTGGSGGTGSGTGGSTDIQMTQSPDSLAVSLGERATINCKSGQSILYSSNDKNYLAWYQQKPGQPPKLLIYWASTRESGVPDRFSGSGSGTDFTLTISSLQAEDVAVYYCQQYYSTPYTFGQGTKVEIKRAA
Binder B4 has an OD492nm [2] of 0.602 OD492nm.

B5: SC03-036 (scFv)
scFv: AMAEVQLVQSGTEVKKPGESLKISCKGSGYGFITYWIGWVRQMPGKGLEWMGIIYPGDSETRYSPSFQGQVTISADKSINTAYLQWSSLKASDTAIYYCAGGSGISTPMDVWGQGTTVTVSSGTGGSGGTGSGTGGSTDIQMTQSPDSLAVSLGERATINCKSSQSVLHSPNNKNYLAWYQQKPGQPPKLLIYWASTRESGVPDRFSGSGSGTDFTLTISSLQAEDVAVYYCQQYYSTNSFGQGTKLEIKRAA
In the case of B5, the OD492nm [2] is reported as 0.24 OD492nm.

B6: SC03-033 (scFv)
scFv: AMAQVQLVQSGTEVKKPGESLKISCKGSGYGFITYWIGWVRQMPGKGLEWMGIIYPGDSETRYSPSFQGQVTISADKSINTAYLQWSSLKASDTAIYYCAGGSGISTPMDVWGQGTTVTVSSGTGGSGGTGSGTGGSTDVVMTQSPDSLAVSLGERATINCKTSHNIFSRSNNKDYLAWYQQKPGQPPRLLIYWASTRASGVPERFSGSGSGTDFSLTISSLQAEDVAVYYCQQYYSSPMYSFGQGTKVEIKRAA
In the case of B6, the OD492nm [3] is reported as 0.288 OD492nm.

B7: SC03-023 (scFv)
scFv: AMAQVQLQQWGAGLLKPSETLSLTCAVYGGSFSGFYWSWIRQPPGKGLEWIGEINHSGSTNYNPSLKSRVTISVDTSKNQFSLKLSSVTAADTAVYYCARRVEVVEYQLLRPRYKSWFDPWGQGTLVTVSSGTGGSGGTGSGTGGSTQSALTQPRSVSGSPGQSVTISCTGSSSTVGGYNYVSWYQQHPGKAPKLMIYDVSKRPSGVSNRFSGSKSGNTASLTISGLQAEDEADYYCSSYTSSSTYVFGTGTKVTVLGAA
In the case of B7, the OD492nm [1] is reported as 1.31 OD492nm.

B8: SC03-025 (scFv)
scFv: AMAEVQLVESGGGLVQPGGSLRLSCAASGFTFSSYAMHWVRQAPGKGLEYVSGISSNGGSTYYANSVKGRFTISRDNSKNTLYLQMGSLRAEDMAVYYCARTTNRAFDIWGQGTMVTVSSGTGGSGGTGSGTGGSTDIQLTQSPDSLAVSLGERATINCKSSQSVLYSSNNKNYLAWYQQKPGQPPKLLIYWASIRESGVPDRFSGSGSGTDFTLTISSLQAEDVAVYYCQQYYNIPYAFGQGTKLEIKRAA
Binder B8 has an OD492nm [1] of 1.64 OD492nm.

B9: SC03-040 (scFv)
scFv: AMAQVQLVQSGGGLVQPGGSLRLSCAASGFTFSSYAMHWVRQAPGKGLEYVSGISSNGGSTYYANSVKGRFTISRDNSKNTLYLQMGSLRAEDMAVYYCARTTNRAFDIWGQGTMVTVSSGTGGSGGTGSGTGGSTDIQMTQSPDSLAVSLGERATINCRSSQSVLYSSNNKNYLAWYQQKPGQPPKLLIYWASTRESGVPDRFSGSGSGTDFTLTISSLQAEDVAVYYCQQYYSSPYSFGQGTKLEIKRAA
B9 gave an OD492nm [3] of 0.616 OD492nm.

B10: SC03-044 (scFv)
scFv: AMAEVQLVETGGGLVQPGGSLRLSCAASGFTFSSYAMHWVRQAPGKGLEYVSGISSNGGSTYYANSVKGRFTISRDNSKNTLYLQMGSLRAEDMAVYYCARTTNRAFDIWGQGTMVTVSSGTGGSGGTGSGTGGSTDIQMTQSPDSLAVSLGERATINCKSSQSVLYSSNNKNYLAWYQQKPGQPPKLLIYWASTRESGVPDRFRGSGSGTDFTLTISSLQAEDLAVYYCQQYYSTPYSFGQGTKLEIKRAA
For B10, the OD492nm [3] was 0.518 OD492nm.

B11: SC03-043 (scFv)
scFv: AMAQVQLVQSGGGLVQPGGSLRLSCAASGFTFSSYAMHWVRQAPGKGLEYVSGISSNGGSTYYANSVKGRFTISRDNSKNTLYLQMGSLRAEDMAVYYCARTTNRAFDIWGQGTMVTVSSGTGGSGGTGSGTGGSTDIQLTQSPDSLAVSLGERATINCKSSQSVLYRSNNKNYLAWYQQKPGQPPKLLIYWASTRESGVSERFSGSGSGTDFTLTISSLQAEDVAVYYCQQYYSTPYSFGQGTKLEIKRAA
With B11 the OD492nm [2] was 1.27 OD492nm.

B12: SC03-054 (scFv)
scFv: AMAEVQLVQSGGGVVQPGRSLRLSCAASGFTFSSYAMHWVRQAPGKGLEYVSGISSNGGSTYYANSVKGRFTISRDNSKNTLYLQMGSLRAEDMAVYYCARTTNRAFDIWGQGTMVTVSSGTGGSGGTGSGTGGSTDIQLTQSPDSLAVSLGERATINCKSSQSVLYSSNNKNYLAWYQQKPGQPPKLLIYWASTRESGVPDRFSGGGSGTDFTLTISSLQAEDVAVYYCQQYYSTPYSFGQGTKVEIKRAA
With B12 the OD492nm [3] was 0.428 OD492nm.

B13: SC03-057 (scFv)
scFv: AMAQVQLVQSGAEVKKPGSSVKVSCKASGGTFSRYAISWVRQAPGQGLEWMGRINPILNLTNYAQKFQGRVTITADKSTSTAYMEMSSLRSEDTAIYYCASPDIVVAGHASPPHYTMDVWGQGTTVTVSSGTGGSGGTGSGTGGSTDIQMTQSPSSLSASVGDRVTITCRASQGIRNDLGWYQQKPGKAPNLLIYQASALQSGVPSRFSGSESGAEFTLTISSLHPDDFATYYCQQYHDFPITFGQGTRLEIKRAA
Work on B13 yielded an OD492nm [2] of 1.19 OD492nm.

B14: SC03-034 (scFv)
scFv: AMAEVQLVQSGAEVKKPGESLKISCKGSGYGFITYWIGWVRQMPGKGLEWMGIIYPGDSETRYSPSFQGQVTISADKSINTAYLQWSSLKASDTAIYYCAGGSGISTPMDVWGQGTTVTVSSGTGGSGGTGSGTGGSTDVVMTQSPDSLAVSLGERATINCKSSQSILNRSNNKNYLAWYQQKPGQPPKLLIYWASTRESGVPDRFSGSGSGTDFNLTISSLQAEDVAVYYCQQYNNWPLTFGGGTKVDIKRAA
For B14, the OD492nm [2] was 0.802 OD492nm.

B15: SC03-039 (scFv)
scFv: AMAEVQLVESGGGLVQPGGSLRLSCAASGFTFSSYAMSWVRQAPGKGLEWVSVIYSGGTSTYYADSVKGRFTISRDNSKNTLYLQMNSLRAEDTAVYFCAKGSKWNDVGGGDYWGQGTLVTVSSGTGGSGGTGSGTGGSTNFMLTQPHSVSESPGKTVTISCAGSSGSIASNYVQWYQQRPGSAPTTVIYEDNQRPSGVPDRFSGSIDSSSNSASLTISGLKTEDEADYYCQSYDGYLWIFGGGTKLTVLGAA
For B15, the OD492nm [2] was 0.851 OD492nm.

B16: SC03-055 (scFv)
scFv: AMAQVQLQQWGAGLLKPSETLSLTCAVYGGSFSGFYWSWIRQPPGKGLEWIGEINHSGSTNYNPSLKSRVTISADTSKNQFSLKLSSVTAADTAVYYCARRVEVVEYQLLRPRYKSWFDPWGQGTLVTVSSGTGGSGGTGSGTGGSTQSVLTQPPSVSGAPGQRVSISCSGSGANGGTDPVSWYQKFPGTAPHLLIYDNNKRPSGIPDRFSGSKSGASATLDITGLQTGDEADYYCGAWDPSLSGYVFGTGTQLTVLSAA
B16 was tested, and the OD492nm [2] was 0.608 OD492nm.

B17: SC03-031 (scFv)
scFv: AMAQVQLVQSGADVKKPGSSVKVSCEASGGTFSSYAISWVRQAPGQGLEWMGRIIPILGITNYAQKFQGRVTITADKSTGTGNMELSSLRSEDTAVYYCARESGGGYDNHFDYWGQGTLVTVSSGTGGSGGTGSGTGGSTQSVLTQPPSASGTPGQRVTISCSGGSSNIGSNTVNWYQQLPGTAPKLVIYANNQRPSGVPDRFSASKSGTSASLAISGLQSEDEADYYCAAWDDSLTGGVFGGGTQLTVLSAA
B17 gave an OD492nm [3] of 0.635 OD492nm.

B18: SC03-046 (scFv)
scFv: AMAEVQLVQSGGGLVQPGGSLRLSCAASGFTFSSYAMHWVRQAPGKGLEYVSGISSNGGSTYYANSVKGRFTISRDNSKNTLYLQMGSLRAEDMAVYYCARTTNRAFDIWGQGTMVTVSSGTGGSGGTGSGTGGSTDVVMTQSPDSLAVSLGERATINCKSSQSVLYSSNNKNYLAWYQQKPGQPPKLLIYWASTRESGVPDRFSGSGSGTDFSLTISSLQAEDVAVYYCQQYYSPPYTFGPGTKVEIKRAA
B18 was tested, and the OD492nm [2] was 1.9 OD492nm.

B19: SC03-037 (scFv)
scFv: AMAKVQLVQSGGGLIQPGGSLRLSCAASGFTVSSNYMSWVRQAPGKGLEWVSIVFSGGSTYYADSVKGRFTISRDNSKNTLYLQMNSLRAEDTAVYYCARDAHRGFGMDVWGQGTTVTVSSGTGGSGGTGSGTGGSTSSELTQDPAVSVALGQTVRITCQGDSLRSYYASWYQQKPGQAPVLVIYGKNNRPSGIPDRFSGSSSGNTASLTITGAQAEDEADYYCNGRDSSGNHWVFGGGTKLTVLGAA
Work on B19 yielded an OD492nm [3] of 0.287 OD492nm.

B20: SC03-038 (scFv)
scFv: AMAEVQLVQSGGGLIQPGGSLRLSCAASGFTVSSNYMSWVRQAPGKGLEWVSIVFSGGSTYYADSVKGRFTISRDNSKNTLYLQMNSLRAEDTAVYYCARDAHRGFGMDVWGQGTTVTVSSGTGGSGGTGSGTGGSTSSELTQDPAVSVALGQTVRITCQGDSLRSYYASWYQQKPGQAPVLVIYGKNNRPSGIPDRFSGSSSGDTASLTITGAQAEDEADYYCNSRDSSGNHWVFGGGTKLTVLGAA
In the case of B20, the OD492nm [3] is reported as 0.314 OD492nm.
